Experimental data reported in the supplement of paper PMC11246515.
± gives the standard deviation of the averaged measurements.

Assay: total protein half-life in vivo (active degradation + dilution); higher = more stable protein
[1] = E. coli NCM3722 delta-clpP, growth: N-lim chemostat, doubling time 6 h
[2] = E. coli NCM3722 delta-hslV, growth: N-lim chemostat, doubling time 6 h
[3] = E. coli NCM3722 delta-lon, growth: N-lim chemostat, doubling time 6 h
[4] = E. coli NCM3722 delta-smpB, growth: N-lim chemostat, doubling time 6 h
[5] = wild type E. coli NCM3722, growth: C-lim chemostat, doubling time 3 h
[6] = wild type E. coli NCM3722, growth: C-lim chemostat, doubling time 6 h
[7] = wild type E. coli NCM3722, growth: N-lim chemostat, doubling time 6 h
[8] = wild type E. coli NCM3722, growth: N-lim chemostat, doubling time 12 h
[9] = wild type E. coli NCM3722, growth: P-lim chemostat, doubling time 6 h
[10] = wild type E. coli NCM3722, growth: P-lim chemostat, doubling time 12 h
[11] = E. coli NCM3722 delta-clpP delta-lon delta-hslV, growth: N-lim chemostat, doubling time 6 h
[12] = wild type E. coli NCM3722, growth: C-lim chemostat, doubling time 12 h

Chain of P0ADC1 (chain, as listed by the source): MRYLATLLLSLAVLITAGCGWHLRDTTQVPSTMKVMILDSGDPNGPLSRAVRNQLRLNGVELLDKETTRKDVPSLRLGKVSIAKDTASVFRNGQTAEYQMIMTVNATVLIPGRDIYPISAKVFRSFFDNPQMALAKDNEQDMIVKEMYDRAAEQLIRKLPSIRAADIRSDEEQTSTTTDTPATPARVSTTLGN

Substance	total protein half-life in vivo [1]	total protein half-life in vivo [2]	total protein half-life in vivo [3]	total protein half-life in vivo [4]	total protein half-life in vivo [5]	total protein half-life in vivo [6]	total protein half-life in vivo [7]	total protein half-life in vivo [8]	total protein half-life in vivo [9]	total protein half-life in vivo [10]	total protein half-life in vivo [11]	total protein half-life in vivo [12]
MPLHNLTRFPRLEFIGAPTPLEYLPRFSDYLGREIFIKRDDVTPMAMGGNKLRKLEFLAADALREGADTLITAGAIQSNHVRQTAAVAAKLGLHCVALLENPIGTTAENYLTNGNRLLLDLFNTQIEMCDALTDPNAQLEELATRVEAQGFRPYVIPVGGSNALGALGYVESALEIAQQCEGAVNISSVVVASGSAGTHAGLAVGLEHLMPESELIGVTVSRSVADQLPKVVNLQQAIAKELELTASAEILLWDDYFAPGYGVPNDEGMEAVKLLARLEGILLDPVYTGKAMAGLIDGISQKRFKDEGPILFIHTGGAPALFAYHPHV	5.78 ± 0.85 h	5.5 ± 0.72 h	6.76 ± 0.46 h	5.72 ± 0.2 h	3.17 ± 0.16 h	5.52 ± 0.73 h	5.78 ± 0.087 h	11.6 ± 0.43 h	5.91 ± 0.16 h	12.259 ± 0.0094 h		
MSSNTFTLGTKSVNRLGYGAMQLAGPGVFGPPRDRHVAITVLREALALGVNHIDTSDFYGPHVTNQIIREALYPYSDDLTIVTKIGARRGEDASWLPAFSPAELQKAVHDNLRNLGLDVLDVVNLRVMMGDGHGPAEGSIEASLTVLAEMQQQGLVKHIGLSNVTPTQVAEARKIAEIVCVQNEYNIAHRADDAMIDALAHDGIAYVPFFPLGGFTPLQSSTLSDVAASLGATPMQVALAWLLQRSPNILLIPGTSSVAHLRENMAAEKLHLSEEVLSTLDGISRE	4.8 ± 0.14 h	4.87 h	4.74 ± 1 h	4.18 ± 0.88 h	3.27 ± 0.3 h	5.527 ± 0.039 h	5.01 h	8.77 h	6.443 ± 0.061 h	12.2 ± 0.21 h	5.35 ± 0.76 h	10.8 ± 0.75 h
MMSAPKITFIGAGSTIFVKNILGDVFHREALKTAHIALMDIDPTRLEESHIVVRKLMDSAGASGKITCHTQQKEALEDADFVVVAFQIGGYEPCTVTDFEVCKRHGLEQTIADTLGPGGIMRALRTIPHLWQICEDMTEVCPDATMLNYVNPMAMNTWAMYARYPHIKQVGLCHSVQGTAEELARDLNIDPATLRYRCAGINHMAFYLELERKTADGSYVNLYPELLAAYEAGQAPKPNIHGNTRCQNIVRYEMFKKLGYFVTESSEHFAEYTPWFIKPGREDLIERYKVPLDEYPKRCVEQLANWHKELEEYKKASRIDIKPSREYASTIMNAIWTGEPSVIYGNVRNDGLIDNLPQGCCVEVACLVDANGIQPTKVGTLPSHLAALMQTNINVQTLLTEAILTENRDRVYHAAMMDPHTAAVLGIDEIYALVDDLIAAHGDWLPGWLHR	2.52 ± 0.52 h	1.5 h	2.73 h		3.25 ± 0.39 h	4.25 ± 0.26 h	1.97 h		4.92 ± 0.48 h	9.8 ± 0.35 h	4.14 h	8.03 ± 1.2 h
METFNSLFMVSPLLLGVLFFVAMLAGFIDSIAGGGGLLTIPALMAAGMSPANALATNKLQACGGSISATIYFIRRKVVSLSDQKLNIAMTFVGSMSGALLVQYVQADVLRQILPILVICIGLYFLLMPKLGEEDRQRRMYGLPFALIAGGCVGFYDGFFGPAAGSFYALAFVTLCGFNLAKATAHAKLLNATSNIGGLLLFILGGKVIWATGFVMLVGQFLGARMGSRLVLSKGQKLIRPMIVIVSAVMSAKLLYDSHGQEILHWLGMN [P0AD30]			6.29 ± 0.21 h	6.13 h		5.18 ± 0.11 h	4.37 h			10 ± 3.5 h	6.4 h	
MLSLYEKIKIRLIILFLLAALSFIGLFFIINYQLVSERAVKRADSRFELIQKNVGYFFKDIERSALTLKDSLYLLKNTEEIQRAVILKMEMMPFLDSVGLVLDDNKYYLFSRRANDKIVVYHQEQVNGPLVDESGRVIFADFNPSKRPWSVASDDSNNSWNPAYNCFDRPGKKCISFTLHINGKDHDLLAVDKIHVDLNWRYLNEYLDQISANDEVLFLKQGHEIIAKNQLAREKLIIYNSEGNYNIIDSVDTEYIEKTSAVPNNALFEIYFYYPGGNLLNASDKLFYLPFAFIIIVLLVVYLMTTRVFRRQFSEMTELVNTLAFLPDSTDQIEALKIREGDAKEIISIKNSIAEMKDAEIERSNKLLSLISYDQESGFIKNMAIIESNNNQYLAVGIIKLCGLEAVEAVFGVDERNKIVRKLCQRIAEKYAQCCDIVTFNADLYLLLCRENVQTFTRKIAMVNDFDSSFGYRNLRIHKSAICEPLQGENAWSYAEKLKLAISSIRDHMFSEFIFCDDAKLNEIEENIWIARNIRHAMEIGELFLVYQPIVDINTRAILGAEALCRWVSAERGIISPLKFITIAEDIGFINELGYQIIKTAMGEFRHFSQRASLKDDFLLHINVSPWQLNEPHFHERFTTIMKENGLKANSLCVEITETVIERINEHFYLNIEQLRKQGVRISIDDFGTGLSNLKRFYEINPDSIKVDSQFTGDIFGTAGKIVRIIFDLARYNRIPVIAEGVESEDVARELIKLGCVQAQGYLYQKPMPFSAWDKSGKLVKE	7.04 ± 0.45 h		6.67 ± 0.23 h	6.334 ± 0.039 h	3 ± 0.23 h	5.9 ± 0.19 h	5.88 ± 0.38 h	12.8 ± 1.2 h	6.03 ± 0.13 h	11.8 ± 1 h	5.7 ± 1.7 h	
MLIPSKLSRPVRLDHTVVRERLLAKLSGANNFRLALITSPAGYGKTTLISQWAAGKNDIGWYSLDEGDNQQERFASYLIAAVQQATNGHCAICETMAQKRQYASLTSLFAQLFIELAEWHSPLYLVIDDYHLITNPVIHESMRFFIRHQPENLTLVVLSRNLPQLGIANLRVRDQLLEIGSQQLAFTHQEAKQFFDCRLSSPIEAAESSRICDDVSGWATALQLIALSARQNTHSAHKSARRLAGINASHLSDYLVDEVLDNVDLATRHFLLKSAILRSMNDALITRVTGEENGQMRLEEIERQGLFLQRMDDTGEWFCYHPLFGNFLRQRCQWELAAELPEIHRAAAESWMAQGFPSEAIHHALAAGDALMLRDILLNHAWSLFNHSELSLLEESLKALPWDSLLENPQLVLLQAWLMQSQHRYGEVNTLLARAEHEIKDIREDTMHAEFNALRAQVAINDGNPDEAERLAKLALEELPPGWFYSRIVATSVLGEVLHCKGELTRSLALMQQTEQMARQHDVWHYALWSLIQQSEILFAQGFLQTAWETQEKAFQLINEQHLEQLPMHEFLVRIRAQLLWAWARLDEAEASARSGIEVLSSYQPQQQLQCLAMLIQCSLARGDLDNARSQLNRLENLLGNGKYHSDWISNANKVRVIYWQMTGDKAAAANWLRHTAKPEFANNHFLQGQWRNIARAQILLGEFEPAEIVLEELNENARSLRLMSDLNRNLLLLNQLYWQAGRKSDAQRVLLDALKLANRTGFISHFVIEGEAMAQQLRQLIQLNTLPELEQHRAQRILREINQHHRHKFAHFDENFVERLLNHPEVPELIRTSPLTQREWQVLGLIYSGYSNEQIAGELEVAATTIKTHIRNLYQKLGVAHRQDAVQHAQQLLKMMGYGV		0.718 h		0.786 h	0.61 ± 0.1 h	1.05 ± 0.094 h		0.803 h		1.36 h	6.02 ± 0.46 h	1.38 ± 0.18 h
MMQHQVNVSARFNPETLERVLRVVRHRGFHVCSMNMAAASDAQNINIELTVASPRSVDLLFSQLNKLVDVAHVAICQSTTTSQQIRA [P0ADG1]	0.96 h		0.664 h		0.829 ± 0.59 h	0.318 h	0.823 h	0.848 ± 0.14 h	0.343 h	0.967 ± 0.53 h		0.533 h
P0ADC1		6.27 ± 0.14 h		6.59 ± 0.86 h	2.97 ± 0.026 h	6.71 ± 0.69 h	6.33 ± 0.095 h	11.7 ± 1.9 h		12.7 ± 0.69 h	6.56 ± 1.7 h	12.9 ± 0.43 h
MIQSQINRNIRLDLADAILLSKAKKDLSFAEIADGTGLAEAFVTAALLGQQALPADAARLVGAKLDLDEDSILLLQMIPLRGCIDDRIPTDPTMYRFYEMLQVYGTTLKALVHEKFGDGIISAINFKLDVKKVADPEGGERAVITLDGKYLPTKPF			5.12 h			5.48 h	3.64 h	11.9 h		11.1 h	5.03 ± 0.21 h	10.6 ± 0.58 h
MDVRQSIHSAHAKTLDTQGLRNEFLVEKVFVADEYTMVYSHIDRIIVGGIMPITKTVSVGGEVGKQLGVSYFLERRELGVINIGGAGTITVDGQCYEIGHRDALYVGKGAKEVVFASIDTGTPAKFYYNCAPAHTTYPTKKVTPDEVSPVTLGDNLTSNRRTINKYFVPDVLETCQLSMGLTELAPGNLWNTMPCHTHERRMEVYFYFNMDDDACVFHMMGQPQETRHIVMHNEQAVISPSWSIHSGVGTKAYTFIWGMVGENQVFDDMDHVAVKDLR	3.55 h	3.6 ± 0.5 h	3.28 ± 0.7 h	3.71 ± 0.51 h	3.43 ± 0.61 h	6.02 ± 0.23 h	4.18 h	5.64 ± 0.57 h	5.56 h	11.6 ± 0.6 h	5.44 ± 1.1 h	10.2 ± 0.68 h
MVKSQPILRYILRGIPAIAVAVLLSACSANNTAKNMHPETRAVGSETSSLQASQDEFENLVRNVDVKSRIMDQYADWKGVRYRLGGSTKKGIDCSGFVQRTFREQFGLELPRSTYEQQEMGKSVSRSNLRTGDLVLFRAGSTGRHVGIYIGNNQFVHASTSSGVIISSMNEPYWKKRYNEARRVLSRS [P0AFV4]	2.09 ± 0.79 h	2.61 ± 1.4 h	2.34 ± 0.085 h	2.33 ± 0.45 h	1.02 ± 0.41 h	3.38 ± 0.45 h	2.19 ± 1.5 h	4.29 ± 1.6 h	3.39 ± 0.15 h	4.64 ± 0.49 h	2.68 ± 0.98 h	7.8 ± 1.4 h
MSEKPLTKTDYLMRLRRCQTIDTLERVIEKNKYELSDNELAVFYSAADHRLAELTMNKLYDKIPSSVWKFIR [P0ACE3]						1.69 ± 0.43 h					2.93 h	0.865 h
MIDYEVLRFIWWLLVGVLLIGFAVTDGFDMGVGMLTRFLGRNDTERRIMINSIAPHWDGNQVWLITAGGALFAAWPMVYAAAFSGFYVAMILVLASLFFRPVGFDYRSKIEETRWRNMWDWGIFIGSFVPPLVIGVAFGNLLQGVPFNVDEYLRLYYTGNFFQLLNPFGLLAGVVSVGMIITQGATYLQMRTVGELHLRTRATAQVAALVTLVCFALAGVWVMYGIDGYVVKSTMDHYAASNPLNKEVVREAGAWLVNFNNTPILWAIPALGVVLPLLTILTARMDKAAWAFVFSSLTLACIILTAGIAMFPFVMPSSTMMNASLTMWDATSSQLTLNVMTWVAVVLVPIILLYTAWCYWKMFGRITKEDIERNTHSLY [P0ABK2]		6.72 h	5.91 h	5.4 h		6.31 h	6.61 h	12.2 ± 1.9 h	6.45 ± 0.17 h	12.9 ± 0.13 h	> 8 h	
MRNHQLGIYEKALAKDLSWPERLVLAKSCGFDFVEMSVDETDERLSRLDWSAAQRTSLVAAMIETGVGIPSMCLSAHRRFPFGSRDEAVRERAREIMSKAIRLARDLGIRTIQLAGYDVYYEDHDEGTRQRFAEGLAWAVEQAAASQVMLAVEIMDTAFMNSISKWKKWDEMLASPWFTVYPDVGNLSAWGNDVPAELKLGIDRIAAIHLKDTQPVTGQSPGQFRDVPFGEGCVDFVGIFKTLHKLNYRGSFLIEMWTEKAKEPVLEIIQARRWIEARMQEAGFIC					1.06 h	1.6 ± 0.19 h						2.24 h
MELYREYPAWLIFLRRTYAVAAGVLALPFMLFWKDRARFYSYLHRVWSKTSDKPVWMDQAEKATGDFY [P0AAU2]				1.38 ± 0.15 h			2.33 h	3.85 h	0.733 h	3.35 ± 1.6 h	2.55 ± 0.61 h	3.9 h
MQENYKILVVDDDMRLRALLERYLTEQGFQVRSVANAEQMDRLLTRESFHLMVLDLMLPGEDGLSICRRLRSQSNPMPIIMVTAKGEEVDRIVGLEIGADDYIPKPFNPRELLARIRAVLRRQANELPGAPSQEEAVIAFGKFKLNLGTREMFREDEPMPLTSGEFAVLKALVSHPREPLSRDKLMNLARGREYSAMERSIDVQISRLRRMVEEDPAHPRYIQTVWGLGYVFVPDGSKA [P0AA16]	6.03 ± 1.6 h	5.25 ± 0.31 h	6.35 ± 0.91 h	4.73 ± 0.46 h	3.32 ± 0.41 h	5.849 ± 0.017 h	4.67 ± 0.22 h	8.55 ± 0.08 h	5.66 ± 0.17 h	11 ± 0.14 h	5.29 ± 0.46 h	10.3 ± 0.2 h
